{
  "source": "patent US12624075B2",
  "about": "“Immune inducer” (TORAY INDUSTRIES, INC., priority 2015, dated 2026)",
  "system": "HLA-A0201-positive CD8-positive T cells",
  "assay": "IFN-γ-producing ability of HLA-A0201-positive CD8-positive T cells against polypeptide-pulsed dendritic cells (ELISA)",
  "format": "cell-based, human",
  "settings": "dendritic cells expressing HLA-A0201 pulsed with 10 μg/mL polypeptide, 24 hours, FIG. 2",
  "procedure": "Peripheral blood was separated from the blood of an HLA-A0201-positive healthy individual. The peripheral blood was layered on Lymphocyte separation medium (Organon Teknika Corporation, Durham, NC), and then centrifuged at 1,500 rpm at room temperature for 20 minutes. A PBMC-containing fraction was collected and washed 3 times (or more) with a cold phosphate buffer solution to obtain PBMCs. The thus obtained PBMCs were suspended in 20 mL of AIM-V medium (manufactured by Life Technologies, Inc.), and allowed to adhere to a culture flask (manufactured by Falcon Plastics Co.) for 2 hours under the conditions of 37° C. and 5% CO2. Non-adherent cells were used for the preparation of T cells, and adherent cells were used for the preparation of dendritic cells.\nThe adherent cells were cultured in AIM-V medium in the presence of IL-4 (1,000 U/ml) and GM-CSF (1,000 U/ml). Six days later, the medium was replaced with AIM-V medium supplemented with IL-4 (1,000 U/mL), GM-CSF (1,000 U/mL), IL-6 (1,000 U/mL, manufactured by Genzyme Corporation), IL-1B (10 ng/ml, manufactured by Genzyme Corporation) and TNF-α (10 ng/ml, manufactured by Genzyme Corporation), and the cells were cultured for another 2 days. The resulting population of the non-adherent cells was used as the dendritic cells.\nThe thus prepared dendritic cells were suspended in AIM-V medium at a cell density of 1×10^6 cells/mL. […]",
  "data": [
    {"molecule": "full-length PDS5A protein: human PDS5A protein of 1337 amino acid residues, prepared according to Example 5 in WO 2011/027807; Comparative Example (protein, listed as Homo sapiens) MDFTAQPKPATALCGVVSADGKIAYPPGVKEITDKITTDEMIKRLKMVVKTFMDMDQDSEDEKQQYLPLALHLASEFFLRNPNKDVRLLVACCLADIFRIYAPEAPYTSHDKLKDIFLFITRQLKGLEDTKSPQFNRYFYLLENLAWVKSYNICFELEDCNEIFIQLFRTLFSVINNSHNKKVQMHMLDLMSSIIMEGDGVTQELLDSILINLIPAHKNLNKQSFDLAKVLLKRTVQTIEACIANFFNQVLVLGRSSVSDLSEHVFDLIQELFAIDPHLLLSVMPQLEFKLKSNDGEERLAVVRLLAKLFGSKDSDLATQNRPLWQCFLGRFNDIHVPVRLESVKFASHCLMNHPDLAKDLTEYLKVRSHDPEEAIRHDVIVTIITAAKRDLALVNDQLLGFVRERTLDKRWRVRKEAMMGLAQLYKKYCLHGEAGKEAAEKVSWIKDKLLHIYYQNSIDDKLLVEKIFAQYLVPHNLETEERMKCLYYLYASLDPNAVKALNEMWKCQNMLRSHVRELLDLHKQPTSEANCSAMFGKLMTIAKNLPDPGKAQDFVKKFNQVLGDDEKLRSQLELLISPTCSCKQADICVREIARKLANPKQPTNPFLEMVKFLLERIAPVHIDSEAISALVKLMNKSIEGTADDEEEGVSPDTAIRSGLELLKVLSFTHPTSFHSAETYESLLQCLRMEDDKVAEAAIQIFRNTGHKIETDLPQIRSTLIPILHQKAKRGTPHQAKQAVHCIHAIFTNKEVQLAQIFEPLSRSLNADVPEQLITPLVSLGHISMLAPDQFASPMKSVVANFIVKDLLMNDRSTGEKNGKLWSPDEEVSPEVLAKVQAIKLLVRWLLGMKNNQSKSANSTLRLLSAMLVSEGDLTEQKRISKSDMSRLRLAAGSAIMKLAQEPCYHEIITPEQFQLCALVINDECYQVRQIFAQKLHKALVKLLLPLEYMAIFALCAKDPVKERRAHARQCLLKNISIRREYIKQNPMATEKLLSLLPEYVVPYMIHLLAHDPDFTRSQDVDQLRDIKECLWFMLEVLMTKNENNSHAFMKKMAENIKLTRDAQSPDESKTNEKLYTVCDVALCVINSKSALCNADSPKDPVLPMKFFTQPEKDFCNDKSYISEETRVLLLTGKPKPAGVLGAVNKPLSATGRKPYVRSTGTETGSNINVNSELNPSTGNRSREQSSEAAETGVSENEENPVRIISVTPVKNIDPVKNKEINSDQATQGNISSDRGKKRTVTAAGAENIQQKTDEKVDESGPPAPSKPRRGRRPKSESQGNATKNDDLNKPINKGRKRAAVGQESPGGLEAGNAKAPKLQDLAKKAAPAERQIDLQR", "values": [
      {"measurement": "amount of IFN-γ produced", "value": "low"}
    ]}
  ]
}
